Reference: patent EP2078752A2 (LUDWIG INSTITUTE FOR CANCER RESEARCH, dated 2009)

Experiments:
Assay in all cases: affinity cross-linking of 125I-activin A then immunoprecipitation, COS-1 cells co-transfected with ActR-II
human ALK-1 (clone HP57) = molecular target: T1, human ALK-1 (clone HP57) (human, UniProt P37023 22-503)
T1 construct: Expressed from cDNA in COS-1 cells, or endogenous in HUVEC; also called hALK-1

mouse ALK-6 (clone ME-6) = molecular target: T2, mouse ALK-6 (clone ME-6) (mouse, UniProt P36898 14-502)
T2 construct: Expressed from cDNA in COS-1 cells; also called mALK-6; BMPR-IB

[1] = molecular target: T3, human ALK-5 (clone EMBLA), TGF-β type I receptor (human, UniProt P36897 25-503)
T3 construct: Expressed from cDNA in COS-1 cells and PAE cells (PAE/TβR-I), or endogenous in human cell lines and HUVEC; also called hALK-5; TβR-I
T3 sequence: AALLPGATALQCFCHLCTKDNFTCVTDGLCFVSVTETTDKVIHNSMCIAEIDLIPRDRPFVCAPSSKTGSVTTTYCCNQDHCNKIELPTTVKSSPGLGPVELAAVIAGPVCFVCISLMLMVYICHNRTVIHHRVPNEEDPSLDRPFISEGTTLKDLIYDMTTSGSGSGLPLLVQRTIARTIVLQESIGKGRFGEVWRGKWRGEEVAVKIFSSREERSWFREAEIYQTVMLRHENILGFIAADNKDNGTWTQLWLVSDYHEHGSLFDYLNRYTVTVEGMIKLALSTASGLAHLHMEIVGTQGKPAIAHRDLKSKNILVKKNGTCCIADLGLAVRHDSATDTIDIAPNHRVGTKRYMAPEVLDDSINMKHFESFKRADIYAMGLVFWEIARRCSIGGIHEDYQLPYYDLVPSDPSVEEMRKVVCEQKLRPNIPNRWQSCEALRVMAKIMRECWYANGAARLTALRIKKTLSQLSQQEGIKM

Measured: binding result

T2 sequence (P36898 14-502 limits assumed): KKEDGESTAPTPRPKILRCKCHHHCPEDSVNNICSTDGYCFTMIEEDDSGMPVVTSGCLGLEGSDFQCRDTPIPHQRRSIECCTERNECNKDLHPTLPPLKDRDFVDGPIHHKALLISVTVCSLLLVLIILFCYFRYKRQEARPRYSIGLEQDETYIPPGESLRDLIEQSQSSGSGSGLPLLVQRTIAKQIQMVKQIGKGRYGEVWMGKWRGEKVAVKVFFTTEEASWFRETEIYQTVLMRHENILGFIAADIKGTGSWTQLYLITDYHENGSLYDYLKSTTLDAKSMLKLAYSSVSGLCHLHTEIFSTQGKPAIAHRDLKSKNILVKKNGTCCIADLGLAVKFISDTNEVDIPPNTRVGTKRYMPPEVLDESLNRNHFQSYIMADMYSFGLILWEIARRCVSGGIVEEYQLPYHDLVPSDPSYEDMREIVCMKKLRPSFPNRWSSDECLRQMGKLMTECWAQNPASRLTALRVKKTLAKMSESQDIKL
T1 sequence (P37023 22-503 S172T limits assumed): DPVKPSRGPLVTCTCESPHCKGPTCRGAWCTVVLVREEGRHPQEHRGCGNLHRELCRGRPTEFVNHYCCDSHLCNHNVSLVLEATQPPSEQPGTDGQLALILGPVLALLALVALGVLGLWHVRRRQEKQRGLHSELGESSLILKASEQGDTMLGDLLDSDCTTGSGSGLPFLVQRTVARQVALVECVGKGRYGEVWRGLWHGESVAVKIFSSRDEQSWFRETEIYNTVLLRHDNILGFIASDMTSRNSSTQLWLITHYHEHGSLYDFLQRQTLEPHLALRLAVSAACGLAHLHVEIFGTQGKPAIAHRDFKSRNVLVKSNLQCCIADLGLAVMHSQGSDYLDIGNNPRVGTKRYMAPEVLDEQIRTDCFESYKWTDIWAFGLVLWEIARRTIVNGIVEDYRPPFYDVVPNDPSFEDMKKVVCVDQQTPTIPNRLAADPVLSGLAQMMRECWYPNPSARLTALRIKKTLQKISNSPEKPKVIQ

B1: recombinant human activin A, iodinated (^125I-activin A) (ligand, UniProt P08476 311-426, looked up)
chain: GLECDGKVNICCKKQFFVSFKDIGWNDWIIAPSGYHANYCEGECPSHIAGTSGSSLSFHSTVINHYRMRGHSPFANLKSCCVPTKLRPMSMLYYDDGQNIIKKDIQNMIVEECGCS
modifications: 125I-iodinated by the chloramine T method
notes: Recombinant ligand
binds: human ALK-1 (clone HP57) | mouse ALK-6 (clone ME-6) | [1]
